Substrate in the data set: C[N+](C)(C)CCO
Nature of the data set: SSM-based electrophysiology, peak currents, proteoliposomes. The data set is classed as biochemical, Corynebacterium glutamicum. The note with it: 500 mM NaCl, 250 mM KPi pH 7.5, 22 °C.

B1: BetP (Corynebacterium glutamicum ATCC 13032; G153D) (protein)
chain: MTTSDPNPKPIVEDAQPEQITATEELAGLLENPTNLEGKLADAEEEIILEGEDTQASLNWSVIVPALVIVLATVVWGIGFKDSFTNFASSALSAVVDNLGWAFILFGTVFVFFIVVIAASKFGTIRLGRIDEAPEFRTVSWISMMFAAGMGIDLMFYGTTEPLTFYRNGVPGHDEHNVGVAMSTTMFHWTLHPWAIYAIVGLAIAYSTFRVGRKQLLSSAFVPLIGEKGAEGWLGKLIDILAIIATVFGTACSLGLGALQIGAGLSAANIIEDPSDWTIVGIVSVLTLAFIFSAISGVGKGIQYLSNANMVLAALLAIFVFVVGPTVSILNLLPGSIGNYLSNFFQMAGRTAMSADGTAGEWLGSWTIFYWAWWISWSPFVGMFLARISRGRSIREFILGVLLVPAGVSTVWFSIFGGTAIVFEQNGESIWGDGAAEEQLFGLLHALPGGQIMGIIAMILLGTFFITSADSASTVMGTMSQHGQLEANKWVTAAWGVATAAIGLTLLLSGGDNALSNLQNVTIVAATPFLFVVIGLMFALVKDLSNDVIYLEYREQQRFNARLARERRVHNEHRKRELAAKRRRERKASGAGKRR
Turning to B1, the Km was 135 ± 28 µM.

As a reminder, the Km is the concentration of substrate that gives half-maximal velocity.
